Laboratory results published in article doi:10.1101/2025.07.30.667432 (bioRxiv, 2025).

Tests used:
Test in all cases: affinity purification with mass spectrometry
Nic96 = Nic96 (Saccharomyces cerevisiae, UniProt P34077)
Nsp1 = Nsp1 (Saccharomyces cerevisiae (strain ATCC …, UniProt P14907))
Nup49 = Nup49 (Saccharomyces cerevisiae (strain ATCC …, UniProt Q02199))
Nup57 = Nup57 (Saccharomyces cerevisiae (strain ATCC …, UniProt P48837))
Pom152 = Pom152 (Saccharomyces cerevisiae (strain ATCC …, UniProt P39685))
Nup192 = Nup192 (Saccharomyces cerevisiae (strain ATCC …, UniProt P47054))
Nup192 (Saccharomyces cerevisiae, sequence (P47054 whole entry): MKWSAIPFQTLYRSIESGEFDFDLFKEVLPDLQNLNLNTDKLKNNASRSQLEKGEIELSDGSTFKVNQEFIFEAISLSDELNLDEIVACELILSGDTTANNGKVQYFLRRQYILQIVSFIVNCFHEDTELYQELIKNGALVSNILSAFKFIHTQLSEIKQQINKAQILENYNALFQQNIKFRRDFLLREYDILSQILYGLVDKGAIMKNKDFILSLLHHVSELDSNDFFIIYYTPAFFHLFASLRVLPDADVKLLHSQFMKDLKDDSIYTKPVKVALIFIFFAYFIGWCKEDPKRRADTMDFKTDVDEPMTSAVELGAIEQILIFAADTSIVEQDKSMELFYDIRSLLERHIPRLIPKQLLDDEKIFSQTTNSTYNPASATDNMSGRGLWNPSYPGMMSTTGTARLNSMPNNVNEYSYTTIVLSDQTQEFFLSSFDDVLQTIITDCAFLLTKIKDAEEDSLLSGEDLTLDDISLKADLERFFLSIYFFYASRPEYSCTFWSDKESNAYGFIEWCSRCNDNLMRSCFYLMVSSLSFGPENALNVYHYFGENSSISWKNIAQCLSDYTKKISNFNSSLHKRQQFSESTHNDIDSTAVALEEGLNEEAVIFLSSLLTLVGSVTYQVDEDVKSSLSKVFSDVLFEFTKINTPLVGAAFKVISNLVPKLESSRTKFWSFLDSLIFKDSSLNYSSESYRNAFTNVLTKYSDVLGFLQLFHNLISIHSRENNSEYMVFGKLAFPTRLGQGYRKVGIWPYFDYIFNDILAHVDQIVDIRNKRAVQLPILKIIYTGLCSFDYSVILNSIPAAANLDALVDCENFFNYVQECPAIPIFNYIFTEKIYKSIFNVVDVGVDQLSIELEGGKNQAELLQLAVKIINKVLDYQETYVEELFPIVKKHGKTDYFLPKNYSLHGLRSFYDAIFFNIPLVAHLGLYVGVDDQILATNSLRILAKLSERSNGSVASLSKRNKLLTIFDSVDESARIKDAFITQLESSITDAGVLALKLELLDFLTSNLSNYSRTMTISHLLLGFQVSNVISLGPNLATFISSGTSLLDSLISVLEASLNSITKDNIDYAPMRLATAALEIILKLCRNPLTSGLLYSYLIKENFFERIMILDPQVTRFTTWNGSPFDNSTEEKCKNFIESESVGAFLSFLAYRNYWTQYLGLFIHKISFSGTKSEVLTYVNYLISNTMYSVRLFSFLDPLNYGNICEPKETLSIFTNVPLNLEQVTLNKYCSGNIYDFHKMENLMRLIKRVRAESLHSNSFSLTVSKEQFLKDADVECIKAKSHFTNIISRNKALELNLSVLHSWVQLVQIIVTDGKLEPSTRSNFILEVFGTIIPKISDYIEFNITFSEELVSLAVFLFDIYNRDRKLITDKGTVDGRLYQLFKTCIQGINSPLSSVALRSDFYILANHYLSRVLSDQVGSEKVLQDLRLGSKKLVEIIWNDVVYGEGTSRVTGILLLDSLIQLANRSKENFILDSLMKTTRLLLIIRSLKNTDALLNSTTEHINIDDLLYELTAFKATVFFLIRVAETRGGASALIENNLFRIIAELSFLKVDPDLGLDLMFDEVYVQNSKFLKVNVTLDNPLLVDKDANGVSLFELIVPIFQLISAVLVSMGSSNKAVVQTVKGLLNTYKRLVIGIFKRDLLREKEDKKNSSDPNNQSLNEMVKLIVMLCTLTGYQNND

Pom34-ZZ = Pom34-ZZ (Saccharomyces cerevisiae (strain ATCC …, UniProt Q12445))
Pom34-ZZ (Saccharomyces cerevisiae, sequence (Q12445 whole entry): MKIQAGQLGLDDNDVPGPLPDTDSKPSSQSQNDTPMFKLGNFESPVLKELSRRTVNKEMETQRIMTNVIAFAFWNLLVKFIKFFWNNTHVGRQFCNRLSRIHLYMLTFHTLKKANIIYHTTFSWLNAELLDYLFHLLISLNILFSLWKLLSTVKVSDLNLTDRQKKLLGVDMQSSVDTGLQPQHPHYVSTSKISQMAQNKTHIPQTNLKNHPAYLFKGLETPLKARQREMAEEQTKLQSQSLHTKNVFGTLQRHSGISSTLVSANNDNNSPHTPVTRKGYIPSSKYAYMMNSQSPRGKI

Measured: binding result

Nup57 (Saccharomyces cerevisiae, sequence (P48837 whole entry): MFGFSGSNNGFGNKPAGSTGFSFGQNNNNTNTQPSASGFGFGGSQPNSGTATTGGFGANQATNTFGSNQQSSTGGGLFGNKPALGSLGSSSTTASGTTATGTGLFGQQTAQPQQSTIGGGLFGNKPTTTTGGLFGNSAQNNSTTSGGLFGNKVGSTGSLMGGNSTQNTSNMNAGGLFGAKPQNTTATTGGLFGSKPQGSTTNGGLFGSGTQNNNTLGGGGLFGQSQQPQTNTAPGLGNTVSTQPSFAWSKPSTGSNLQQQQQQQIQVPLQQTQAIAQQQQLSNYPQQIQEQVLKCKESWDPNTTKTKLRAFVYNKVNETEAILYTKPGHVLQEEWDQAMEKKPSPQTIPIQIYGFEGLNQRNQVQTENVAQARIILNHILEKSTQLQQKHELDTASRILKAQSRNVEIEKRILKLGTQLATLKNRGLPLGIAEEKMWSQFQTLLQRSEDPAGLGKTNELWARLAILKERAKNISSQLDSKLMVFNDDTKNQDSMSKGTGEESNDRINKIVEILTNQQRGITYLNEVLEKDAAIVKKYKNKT
Nup49 (Saccharomyces cerevisiae, sequence (Q02199 whole entry): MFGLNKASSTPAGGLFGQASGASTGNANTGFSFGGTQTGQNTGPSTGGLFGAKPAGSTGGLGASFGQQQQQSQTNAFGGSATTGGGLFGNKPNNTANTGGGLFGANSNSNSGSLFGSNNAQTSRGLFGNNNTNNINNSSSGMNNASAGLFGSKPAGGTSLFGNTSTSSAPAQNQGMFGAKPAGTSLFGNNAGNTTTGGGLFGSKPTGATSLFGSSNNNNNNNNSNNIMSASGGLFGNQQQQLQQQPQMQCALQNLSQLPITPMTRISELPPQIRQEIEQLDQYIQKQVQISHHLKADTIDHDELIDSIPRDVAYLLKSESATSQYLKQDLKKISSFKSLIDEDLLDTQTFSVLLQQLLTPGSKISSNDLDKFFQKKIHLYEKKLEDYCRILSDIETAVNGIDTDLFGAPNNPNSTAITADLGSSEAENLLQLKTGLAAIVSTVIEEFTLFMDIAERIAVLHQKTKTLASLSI
Nic96, sequence (P34077 whole entry): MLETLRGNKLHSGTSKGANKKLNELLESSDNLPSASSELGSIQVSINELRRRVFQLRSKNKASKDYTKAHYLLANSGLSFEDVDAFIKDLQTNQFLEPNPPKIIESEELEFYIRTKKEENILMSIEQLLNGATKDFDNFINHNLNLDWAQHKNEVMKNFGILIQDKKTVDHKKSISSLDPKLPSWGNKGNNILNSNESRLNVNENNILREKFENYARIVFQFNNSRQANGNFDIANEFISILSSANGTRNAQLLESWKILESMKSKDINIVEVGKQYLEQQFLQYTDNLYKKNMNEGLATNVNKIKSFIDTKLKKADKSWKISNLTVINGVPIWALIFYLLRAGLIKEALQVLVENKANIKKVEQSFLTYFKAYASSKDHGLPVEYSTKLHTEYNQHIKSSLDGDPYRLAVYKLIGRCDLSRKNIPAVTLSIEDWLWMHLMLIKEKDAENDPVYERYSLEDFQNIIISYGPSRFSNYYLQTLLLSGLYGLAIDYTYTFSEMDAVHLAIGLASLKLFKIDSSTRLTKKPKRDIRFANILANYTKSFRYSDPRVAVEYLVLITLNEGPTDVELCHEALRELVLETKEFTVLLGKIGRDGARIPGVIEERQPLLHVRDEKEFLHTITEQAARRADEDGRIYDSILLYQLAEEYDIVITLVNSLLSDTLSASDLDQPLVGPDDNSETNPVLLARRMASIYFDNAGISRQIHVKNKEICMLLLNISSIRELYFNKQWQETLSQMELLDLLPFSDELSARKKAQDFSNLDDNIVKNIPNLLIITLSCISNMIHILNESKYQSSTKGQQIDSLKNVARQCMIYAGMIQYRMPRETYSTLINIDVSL

B1: VHH[Nic96]-ZZ (VHH)
VHH: QVQLVETGGGLVQAGGSLRLSCATSGFNFRLRTMGWYRQAPGKERELVASITSGGSTDYADSVKGRFTISRDNAKNTISLEMNSLKPDDTAVYYCNIWAPTTAAITNWGQGTQVTVSS
not listed: Pom34-ZZ
binds: all other assays above

B2: VHH[Nic96] (as expressed in the Pom34-ZZ strain) (VHH)
VHH: B1 VHH
binds: Pom34-ZZ
